A short description of this data set: soluble on expression in E. coli; label from the status in PepcDB or PDB records.
On to “MRALLFTSVVLLALAFVEAKKQTITVKGTTICNKKRIQAEVTLWEKDTLDPDDKLASMQSNKEGEFSLTGSDDEITSISPYLIITHNCNVKKAGCKRVSEYLIPKEKIGGTYDMTYVTLDILSAKDKEKC”, for which the “soluble on expression in E. coli” value was “not soluble”.
The value for “MRANIWQILSVSVLFFFGTAIGQAQSRNRTYEAYVKQYADEAIRQMSRYNIPASITIAQALVETGAGASTLASVHNNHFGIKCHKSWTGKRTYRTDDAPNECFRSYSAARESYEDHSRFLLQPRYRPLFKLDREDYRGWATGLQRCGYATNRGYANLLIKMVELYELYALDREKYPSWFHKSYPGSNKKSHQTTKQKQSGLKHEAYFSYGLLYIIAKQGDTFDSLAEEFDMRASKLAKYNDAPVDFPIEKGDVIYLEKKHACSISKHTQHVVRVGDSMHSISQRYGIRMKNLYKLNDKDGEYIPQEGDILRLR” was “not soluble”; that for “MRAVFRTDIGQIREHNEDSGGVFVNQSGQYLAVVADGMGGHRAGDVASSMAVAYLQERWEKESGLASPAEAEQWLKTQIASANEQLFRHALSHPECQGMGTTVVAAVCANSFATVAHIGDSRCYVLNKSGIQQLTDDHSLVNELVKSGQLSKEAAEHHPRKNVLLRALGTEPAVKIDVKTVALDEGDMLLLCSDGLSNKVPEADMIHILTGAGTLEEKAEALIQLANGRGGEDNISLAVIDVSAEREGG” was “not soluble”; that for “MRAVVLKGFGGLEMLEERDLPVPEPGPGEVLVRNLAVAVNPVDAKIRAAGRWAGVEPPFVLGYDAAGVVAKVGPGVKDLKEGDEVYYTPEIFGNPHGTYAEYTPVPAGIVAKKPKNLSFAEAAAIPLAGGTAWKAVVRRLAVRPGETVLVMGGAGGVGSFAVQFAKAAGAYVIATASAENLPVLKELGADLALDYRGPWAEEVLKATEGQGVDAAFETAGESLVERVIPVVRPFGRIATILPPQGNLSGLYTKNQTLYGVFLTRERKRLLEMRPLFERGLARPLIAEVLPFSLENLRKAHARMDSGHGRGKIVLTFQA” was “soluble”.
Turning to “MRCMTLPAYDIAILGAGPVGRVLALLLARLTPQPQRIALLQGGAGLPPTPAGTLGPAADPRVLALNHGSRVLLESLRAWPAHAAEIRHIHVSQRGRLGRTVIDREDFDVPQLGNVVAYAALHAQLEQAVQDCGVTVLSGPPARVDGQDGEGLTVRQGDAALHCRLAVQCDGAGGSDVRRDYAQHAVLTSAHATLPRSGWAWERFTNEGPLAMLPHPQTPEAYSVVWCCAPPRAQRLAGLDDEAFSRELTEAFGTRLGRLRSAAPRHVFPLELKARHAQAHGRLATIGNAAQTLHPVAGQGLNLGLRDAAQLAHALPDWLAAPQADPSPLLAAFARARLADRWVTAGLTDLMPRIFATGLAPVEHACGLALLGLDIAAPLRAPLARHLLQGLRV”, the “soluble on expression in E. coli” value is “not soluble”.
As for “MRDMGEPKLKIVAMPSDTNPAGNIFGGWILSQIDLAGAIAARELSPERVVTISMDKVVFKEPVFIGDIISCYSKVVNVGNTSISVEVEVTAQRVDSQGCTSCINVTSALVTYVSVTRDGKKNPISEELKRIHGFLNALEHHHHHH”, the “soluble on expression in E. coli” value is “soluble”.
The value for “MRDSLNNGVSLQQAQETYFAKFNHYSYMAHFVAKILGQRPSHVLSGWGVSELIVAYGHYANEQSYQNFMDWKSSQENAPKPKQPQPFVVQFISQDELEEVE” was “not soluble”; that for “MRECISIHVGQAGVQIGNACWELYCLEHGIQPDGQMPSDKTIGGGDDSFNTFFSETGAGKHVPRAVFVDLEPTVIDEVRTGTYRQLFHPEQLITGKEDAANNYARGHYTIGKEIIDLVLDRIRKLADQCTGLQGFSVFHSFGGGTGSGFTSLLMERLSVDYGKKSKLEFSIYPAPQVSTAVVEPYNSILTTHTTLEHSDCAFMVDNEAIYDICRRNLDIERPTYTNLNRLIGQIVSSITASLRFDGALNVDLTEFQTNLVPYPRAHFPLATYAPVISAEKAYHEQLSVAEITNACFEPANQMVKCDPRHGKYMACCLLYRGDVVPKDVNAAIATIKTKRTIQFVDWCPTGFKVGINYEPPTVVPGGDLAKVQRAVCMLSNTTAIAEAWARLDHKFDLMYAKRAFVHWYVGEGMEEGEFSEAREDMAALEKDYEEVGVDSVEGEGEEEGEEY” was “soluble”; that for “MRFEEEIGSLQMLCDQFQNKINTLEKQMNEEKKDYVQKLHRLHEKNGEAIDKMKQLDHTMQAVSTKVVHLGDQLESVDQPRSRAHDAHQLMQHFDEFLSDQPLNSMIFTDPDKLLESADLVHKLYSISQELNKDKFANVQARIGQRYKVVEDLLIEEFVRSQRDEKKMAEVAKILSEFKGYSGCVDRYVDFLCQSIHPRGDGGEILADCLQLCRTQQPRISAIFPSPHTVMQKLVLNIFTGRMKETITARLRECKDTDDQEHYLRDLAYLYSSTLKMCKELEKLHISPDSAFLSTLTDSIFQRYIATYCSEELKYLNDQCSNLLQRFYESKKHVKKQIGGGLHELKRDVAARLMNVETYGGETFVAEDVAISILQETKNAFGRANQLCDKEELPRHVENIVDVLLKYLYGEHLDYAVETGLAGISLAESKTEPPAYFFSVVAKCTSVILLMIKQFEDPIFPIIKETIVEPSVAKKWQQSLRSLESKMSLGLERQLNSIVGYVKFLFSEQKKTDFRPDSQQIDIRVSPQCQLASRFLANQVAAMELGCDGENLEALQSDLATRLFKFMLTHIQQFTYNSTGAVLLLCDVGELRTLVSKWRVQNALTQWESLQALTNLLAVLPDQVNETAHSSLLENVDRQLIHDFVRLRTDFRSIKNFQI” was “not soluble”.
As to “MRFKVVGKNIVVTEALKEAAVKKVGKLDKYFRRDAEATITMSVQKNRHIVEVTIPFEGGLLRAEEDSPDMYASIDKVIDSLERQIRRNKTKLEKKVHDGSLRFENIKFDDDEVEEEPKFEVVRTKKFAIKPMTVEEAILQMNLLGHQFFMFSNAETNEANVVYRRKDGNYGLIEPEF”, the “soluble on expression in E. coli” value was “not soluble”.
The value for “MRFLHTADWQLGMTRHFLNGEAQPRYSASRREAVASLGEIAKRTGAEFVVVSGDVFEHNQLAPRDVSQSLEAMRAIGVPVYLLPGNHDPLDASSVYTSALFVAERPDNVVVLDRAGVHEVRPGVQIVAAPWRSKAPTSDLIGDVLADLPADGVTRVLVGHGGVDILDPDKNKPSLIRMAAVEDALARGAVHYVALGDKHSRTEVGGSGRVWYSGSPEVTNYDDIESDPGHVLVVDIDENDARRAVRVESEKVGRWRFVTLRRSVDTDRDIADLDLNLDLLDDKERTVVRLALTGSLTVTDKAKLDECLDRYARLFAALTTWERLEHHHHHH” was “not soluble”.
Regarding “MRGRPIELEPWQQFAFACILGFKVKATGRRKYTSAFIEVPRKNAKSTTAAILANWFLIMENGQQDIYTAAVSRDQARIVFDNARQMCLLSRPLRRRVNIQAHKVIHPKSNSLLKPLAAKAATIEGTNPSLSIVDEYHLHPDNGVYSALELGMGARPEGLLFAITTSGSNVVSACKQHYDYCCQILDGEEVNDSIFVLIYELDDENEVDDPAMWIKANPNIDVSVDREKLASTIQKARGIPSQWVEMMTKRFNIWCQGTTPWMGNGAWAECAGTFTEEDLHGQECYAGLDLSSTSDISSVCYAFPVGKTIMLISRHYLPEFQLQNPANKNRAVYRQWAKAGWIRTTPGDCIDYDRIRDDIMQDAEKFNIRLVGFDTWNATHLRTQLQGAGFEVEPFPQTYLRFSPAAKSFEVFVNRRVIVHRGDPVLSWSMSNVVMQSDANANIKPNKKKSPNKIDPSVAALMAFGTFQAEHEDFAFDISDSHRQKLEEFSGV”, the “soluble on expression in E. coli” value is given as “not soluble”.
The entry for “MRGSHHHHHHGSLQVTVRDAINQGMDEELERDEKVFLLGEEVAQYDGAYKVSRGLWKKYGDKRIIDTPISEMGFAGIAVGAAMAGLRPICEFMTFNFSMQAIDQVINSAAKTYYMSGGLQPVPIVFRGPNGASAGVAAQHSQCFAAWYGHCPGLKVVSPWNSEDAKGLIKSAIRDNNPVVVLENELMYGVPFEFPPEAQSKDFLIPIGKAKIERQGTHITVVSHSRPVGHCLEAAAVLSKEGVECEVINMRTIRPMDMETIEASVMKTNHLVTVEGGWPQFGVGAEICARIMEGPAFNFLDAPAVRVTGADVPMPYAKILEDNSIPQVKDIIFAIKKTLNI” is “soluble”; for “MRGSHHHHHHGSPGLQEFMAATGANAEKAESHNDCPVRLLNPNIAKMKEDILYHFNLTTSRHNFPALFGDVKFVCVGGSPSRMKAFIRCVGAELGLDCPGRDYPNICAGTDRYAMYKVGPVLSVSHGMGIPSISIMLHELIKLLYYARCSNVTIIRIGTSGGIGLEPGTVVITEQAVDTCFKAEFEQIVLGKRVIRKTDLNKKLVQELLLCSAELSEFTTVVGNTMCTLDFYEGQGRLDGALCSYTEKDKQAYLEAAYAAGVRNIEMESSVFAAMCSACGLQAAVVCVTLLNRLEGDQISSPRNVLSEYQQRPQRLVSYFIKKKLSKA” it is “soluble”; for “MRGSHHHHHHGSRVMVIGGDGYCGWATALHLSKKNYEVCIVDNLVRRLFDHQLGLESLTPIASIHDRISRWKALTGKSIELYVGDICDFEFLAESFKSFEPDSVVHFGEQRSAPYSMIDRSRAVYTQHNNVIGTLNVLFAIKEFGEECHLVKLGAMGEYGTPNIDIEEGYITITHNGRTDTLPYPKQASSFYHLSKVHDSHNIAFTCKAWGIRATDLNQGVVYGVKTDETEMHEELRNRLDYDAVFGTALNRFCVQAAVGHPLTVYGKGGQTRGYLDIRDTVQCVEIAIANPAKAGEFRVFNQFTEQFSVNELASLVTKAGSKLGLDVKKMTVPNPRVEAEEHYYNAKHTKLMELGLEPHYLSDSLLDSLLNFAVQFKDRVDTKQIMPSVSWKKIGVKTKSMTT” it is “soluble”.
The entry for “MRGSHHHHHHGSTMDIKPAFGTNQEDYASYIMNGIIKWGDPVTRVLDDGELLVQQTKNSDRTPLVSVLLEGPPHSGKTALAAKIAEESNFPFIKICSPDKMIGFSETAKCQAMKKIFDDAYKSQLSCVVVDDIERLLDYVPIGPRFSNLVLQALLVLLKKAPPQGRKLLIIGTTSRKDVLQEMEMLNAFSTTIHVPNIATGEQLLEALELLGNFKDKERTTIAQQVKGKKVWIGIKKLLMLIEMSLQMDPEYRVRKFLALLREEGASPLDFK” is “soluble”; for “MRGSHHHHHHGSVEYTPWLIAGLGNPGNKYYGTRHNVGFEMVDRIAAEEGITMNTEQSKSLLGIGSIGEVPVLVVKPQSYMNYSGEAIGPLAAYYQVPLRHILLIYDDTSLPNGVLRLQKKGGHGRHNGLQNVIEHLDGRREFPRLSIGIGSPPGKMDPRAFLLQKFSSEERVQIDTALEQGVDAVRTLVLKGFSGSTERFNLVQKYKFHRV” it is “soluble”.
Regarding “MRGSHHHHHHTDPALRAKKIAIVGAGPTGIYTLFSLLQQQTPLSISIFEQADEAGVGMPYSDEENSKMMLANIASIEIPPIYCTYLEWLQKQEDSHLQRYGVKKETLHDRQFLPRILLGEYFRDQFLRLVDQARQQKFAVAVYESCQVTDLQITNAGVMLATNQDLPSETFDLAVIATGHVWPDEEEATRTYFPSPWSGLMEAKVDACNVGIMGTSLSGLDAAMAVAIQHGSFIEDDKQHVVFHRDNASEKLNITLLSRTGILPEADFYCPIPYEPLHIVTDQALNAEIQKGEEGLLDRVFRLIVEEIKFADPDWSQRIALESLNVDSFAQAWFAERKQRDPFDWAEKNLQEVERNKREKHTVPWRYVILRLHEAVQEIVPHLNEHDHKRFSKGLARVFIDNYAAIPSESIRRLLALREAGIIHILALGEDYKMEINESRTVLKTEDNSYSFDVFIDARGQRPLKVKDIPFPGLREQLQKTGDEIPDVGEDYTLQQPEDIRGRVAFGALPWLMHDQPFVQGLTACAEIGEAMARAVVKPASRARRRLSFDGLCGR”, the “soluble on expression in E. coli” value is “soluble”.

Values taken from the DeepSol protein solubility set.
